# Experimental data published in patent publication US20220298225A1, “METHODS AND COMPOSITIONS FOR TREATING CANCER WITH COLLAGEN BINDING DRUG CARRIERS” (The University of Chicago, priority 2019, published 2022).
# T1: collagen type III (Homo sapiens, UniProt P02461)
# T1 sequence (P02461 154-1221 limits assumed): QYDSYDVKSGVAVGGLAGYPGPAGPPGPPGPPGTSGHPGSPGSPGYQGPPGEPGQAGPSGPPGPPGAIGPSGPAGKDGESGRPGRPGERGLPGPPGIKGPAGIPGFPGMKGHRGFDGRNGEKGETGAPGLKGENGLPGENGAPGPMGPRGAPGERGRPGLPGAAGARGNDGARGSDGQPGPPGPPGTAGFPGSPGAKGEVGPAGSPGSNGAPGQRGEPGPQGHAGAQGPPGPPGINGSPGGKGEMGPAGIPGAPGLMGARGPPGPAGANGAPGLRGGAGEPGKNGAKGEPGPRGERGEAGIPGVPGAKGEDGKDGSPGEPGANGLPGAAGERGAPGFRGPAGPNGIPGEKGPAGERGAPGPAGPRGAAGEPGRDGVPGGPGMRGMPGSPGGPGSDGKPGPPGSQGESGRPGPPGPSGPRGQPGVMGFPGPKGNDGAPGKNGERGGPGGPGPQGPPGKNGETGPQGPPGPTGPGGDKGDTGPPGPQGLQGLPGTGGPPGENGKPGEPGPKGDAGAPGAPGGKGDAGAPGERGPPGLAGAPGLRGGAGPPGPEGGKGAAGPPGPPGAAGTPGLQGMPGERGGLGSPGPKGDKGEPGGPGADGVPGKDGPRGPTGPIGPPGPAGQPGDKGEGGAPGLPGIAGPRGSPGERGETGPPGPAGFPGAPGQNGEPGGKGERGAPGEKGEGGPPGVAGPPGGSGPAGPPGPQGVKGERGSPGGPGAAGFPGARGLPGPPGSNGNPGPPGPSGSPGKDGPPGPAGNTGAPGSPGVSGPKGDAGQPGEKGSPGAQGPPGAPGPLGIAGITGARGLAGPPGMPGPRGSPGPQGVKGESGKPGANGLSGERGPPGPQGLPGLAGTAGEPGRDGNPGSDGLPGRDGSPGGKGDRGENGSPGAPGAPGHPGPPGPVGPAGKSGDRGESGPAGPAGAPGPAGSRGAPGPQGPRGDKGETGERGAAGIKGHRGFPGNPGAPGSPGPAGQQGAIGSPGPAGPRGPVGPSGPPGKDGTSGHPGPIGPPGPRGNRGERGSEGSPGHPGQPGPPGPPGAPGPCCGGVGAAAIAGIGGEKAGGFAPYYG
# B1: CBD-SA: recombinant mouse serum albumin with VWF A3 collagen binding domain on the N-terminus via (GGGS)2 linker (SEQ ID NO:3) (protein)
# chain: CSQPLDVILLLDGSSSFPASYFDEMKSFAKAFISKANIGPRLTQVSVLQYGSITTIDVPWNVVPEKAHLLSLVDVMQREGGPSQIGDALGFAVRYLTSEMHGARPGASKAVVILVTDVSVDSVDAAADAARSNRVTVFPIGIGDRYDAAQLRILAGPAGDSNVVKLQRIEDLPTMVTLGNSFLHKLCSGFVRIGGGSGGGSEAHKSEIAHRYNDLGEQHFKGLVLIAFSQYLQKCSYDEHAKLVQEVTDFAKTCVADESAANCDKSLHTLFGDKLCAIPNLRENYGELADCCTKQEPERNECFLQHKDDNPSLPPFERPEAEAMCTSFKENPTTFMGHYLHEVARRHPYFYAPELLYYAEQYNEILTQCCAEADKESCLTPKLDGVKEKALVSSVRQRMKCSSMQKFGERAFKAWAVARLSQTFPNADFAEITKLATDLTKVNKECCHGDLLECADDRAELAKYMCENQATISSKLQTCCDKPLLKKAHCLSEVEHDTMPADLPAIAADFVEDQEVCKNYAEAKDVFLGTFLYEYSRRHPDYSVSLLLRLAKKYEATLEKCCAEANPPACYGTVLAEFQPLVEEPKNLVKTNCDLYEKLGEYGFQNAILVRYTQKAPQVSTPTLVEAARNLGRVGTKCCTLPEDQRLPCVEDYLSAILNRVCLLHEKTPVSEHVTKCCSGSLVERRPCFSALTVDETYVPKEFKAETFTFHSDICTLPEKEKQIKKQTALAELVKHKPKATAEQLKTVMDDFAQFLDTCCKAADKDTCFSTEGPNLVTRCKDALAHHHHHH
# Columns and labels:
# [1] = target: T1, collagen type III; experiment: Binding affinity of CBD-SA to collagen by ELISA
# Description: (§1) The binding affinity of CBD-SA to collagens were tested as described previously (9). 96 well ELISA plates (Greiner Bio-One) were coated with collagen I or collagen III (10 μg/mL each in PBS) for overnight at 37° C., followed by blocking with 2% BSA in PBS with 0.05% Tween 20 (PBS-T) for 1 h at room temperature. Then, wells were washed with PBS-T and further incubated with CBD-SA at increasing concentrations for 2 h at room temperature. After three washes with PBS-T, wells were incubated for 1 h at room temperature with biotin- conjugated Abs against mouse SA. After washes, bound CBD-SA were detected with tetramethylbenzidine substrate by measurement of the absorbance at 450 nm with subtraction of the absorbance at 570 nm. The apparent Kd values were obtained by nonlinear regression analysis in Prism software (version 7, GraphPad) assuming one-site-specific binding.
# [2] = target: collagen type I (Homo sapiens, UniProt P02452+P08123); experiment: Binding affinity of CBD-SA to collagen by ELISA
# Sequence of collagen type I (P02452 162-1218 limits assumed): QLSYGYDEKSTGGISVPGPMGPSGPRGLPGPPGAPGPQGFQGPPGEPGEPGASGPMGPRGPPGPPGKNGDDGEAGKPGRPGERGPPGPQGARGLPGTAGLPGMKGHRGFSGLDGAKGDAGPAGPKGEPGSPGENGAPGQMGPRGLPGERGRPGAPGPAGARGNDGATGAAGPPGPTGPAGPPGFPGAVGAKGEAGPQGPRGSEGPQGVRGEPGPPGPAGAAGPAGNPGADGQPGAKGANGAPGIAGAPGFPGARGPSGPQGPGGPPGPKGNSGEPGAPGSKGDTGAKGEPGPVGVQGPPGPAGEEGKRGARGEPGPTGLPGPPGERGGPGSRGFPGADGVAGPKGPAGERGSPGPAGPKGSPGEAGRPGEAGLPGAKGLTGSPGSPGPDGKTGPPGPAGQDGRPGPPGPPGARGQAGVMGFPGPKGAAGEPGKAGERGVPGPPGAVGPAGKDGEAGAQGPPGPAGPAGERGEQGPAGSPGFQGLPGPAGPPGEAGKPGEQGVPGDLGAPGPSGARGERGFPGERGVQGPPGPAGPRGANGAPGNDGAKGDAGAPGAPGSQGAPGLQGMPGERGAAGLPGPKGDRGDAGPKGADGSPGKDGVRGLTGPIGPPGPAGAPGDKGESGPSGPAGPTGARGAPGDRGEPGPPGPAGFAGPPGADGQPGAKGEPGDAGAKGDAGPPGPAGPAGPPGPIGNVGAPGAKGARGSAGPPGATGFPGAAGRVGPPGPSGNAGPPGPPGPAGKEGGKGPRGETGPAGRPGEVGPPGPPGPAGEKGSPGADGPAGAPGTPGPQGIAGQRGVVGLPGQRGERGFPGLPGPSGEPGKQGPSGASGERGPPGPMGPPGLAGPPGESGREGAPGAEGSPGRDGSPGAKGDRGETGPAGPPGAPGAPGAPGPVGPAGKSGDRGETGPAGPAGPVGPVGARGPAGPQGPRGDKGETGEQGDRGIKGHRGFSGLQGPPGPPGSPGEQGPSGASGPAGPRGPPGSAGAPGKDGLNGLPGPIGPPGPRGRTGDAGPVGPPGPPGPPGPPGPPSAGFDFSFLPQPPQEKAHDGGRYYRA
# Sequence of collagen type I (P08123 80-1119 limits assumed): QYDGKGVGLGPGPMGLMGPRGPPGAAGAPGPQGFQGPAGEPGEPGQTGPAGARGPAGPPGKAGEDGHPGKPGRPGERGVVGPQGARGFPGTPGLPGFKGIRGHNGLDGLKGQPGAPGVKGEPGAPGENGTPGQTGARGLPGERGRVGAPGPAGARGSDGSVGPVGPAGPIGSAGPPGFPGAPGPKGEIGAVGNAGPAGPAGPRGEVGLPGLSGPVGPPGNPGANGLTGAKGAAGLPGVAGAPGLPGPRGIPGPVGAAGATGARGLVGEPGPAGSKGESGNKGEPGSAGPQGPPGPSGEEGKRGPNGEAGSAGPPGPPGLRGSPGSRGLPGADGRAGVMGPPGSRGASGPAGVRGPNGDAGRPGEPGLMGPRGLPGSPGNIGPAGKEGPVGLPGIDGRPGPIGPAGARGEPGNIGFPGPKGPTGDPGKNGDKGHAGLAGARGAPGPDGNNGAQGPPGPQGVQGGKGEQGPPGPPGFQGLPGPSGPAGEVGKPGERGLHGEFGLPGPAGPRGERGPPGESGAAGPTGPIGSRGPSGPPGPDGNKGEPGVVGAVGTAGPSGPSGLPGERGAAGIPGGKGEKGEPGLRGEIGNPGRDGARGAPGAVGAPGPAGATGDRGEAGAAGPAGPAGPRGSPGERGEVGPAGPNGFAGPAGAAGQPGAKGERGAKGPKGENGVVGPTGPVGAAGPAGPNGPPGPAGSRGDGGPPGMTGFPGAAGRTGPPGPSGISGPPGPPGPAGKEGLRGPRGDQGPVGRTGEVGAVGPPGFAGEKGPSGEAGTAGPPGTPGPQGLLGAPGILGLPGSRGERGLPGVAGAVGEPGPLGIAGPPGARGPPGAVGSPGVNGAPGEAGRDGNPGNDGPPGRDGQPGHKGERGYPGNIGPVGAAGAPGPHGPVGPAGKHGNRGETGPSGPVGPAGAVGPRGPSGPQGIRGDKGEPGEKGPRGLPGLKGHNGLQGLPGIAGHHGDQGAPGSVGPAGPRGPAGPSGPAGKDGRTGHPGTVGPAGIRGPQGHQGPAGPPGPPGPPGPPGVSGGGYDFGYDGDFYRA
# Description: as §1
# [3] = test system: MMTV-PyMT tumor; experiment: Histological analysis of injected CBD-SA within tumor; assay type: in vivo, mouse; settings: 1 h after i.v. injection, CD31 staining
# Description: Mouse SA (Sigma-Aldrich) and CBD-SA were conjugated with NHS-DyLight 488 according to manufacturer's instructions. Unreacted dye was removed by Zeba spin desalting column, then fluorescent protein solution was stored at 4° C. until use. 100 μg of fluorescent labeled SA or CBD-SA labeled with equimolar of dye was intravenously injected to MMTV-PyMT tumor-bearing mice. 1 h after injection, tumors were harvested and frozen in dry ice with OCT compound. 10 μm of tissue slices were obtained by cryo-sectioning. The tissues were fixed with 2% paraformaldehyde in PBS for 15 min at room temperature. After wash with PBS-T, the tissues were blocked with 2% BSA in PBS-T for 1 h at room temperature. The tissues were stained with biotin labeled anti-mouse CD31 antibody (1:100, Biolegend) and Alexa Fluor 647 streptavidin (1:1000, Biolegend). The tissues were washed three times, then covered with ProLong gold antifade mountant with DAPI (Thermo fisher scientific). IX83 microscope (Olympus) was used for imaging with ×60 magnification. Images were processed using ImageJ software (NIH).
molecule,measurement,setting,value
B1,dissociation constant (Kd) to collagen type III,[1],nM range
same,dissociation constant (Kd) to collagen type I,[2],nM range
same,localization of fluorescently-labeled protein within tumor tissue,[3],co-localized with CD31 staining within tumor tissue
